# Data from IntAct's records for PubMed 21224850.
# B1: Cell division protein SepF (Bacillus subtilis), O31728 (parent)
# chain: MSMKNKLKNFFSMEDEEYEYEYIETERESHEEHEQKEKPAYNGNKPAGKQNVVSLQSVQKSSKVVLSEPRVYAEAQEIADHLKNRRAVVVNLQRIQHDQAKRIVDFLSGTVYAIGGDIQRIGSDIFLCTPDNVDVSGTISELISEDEHQRW
# partner: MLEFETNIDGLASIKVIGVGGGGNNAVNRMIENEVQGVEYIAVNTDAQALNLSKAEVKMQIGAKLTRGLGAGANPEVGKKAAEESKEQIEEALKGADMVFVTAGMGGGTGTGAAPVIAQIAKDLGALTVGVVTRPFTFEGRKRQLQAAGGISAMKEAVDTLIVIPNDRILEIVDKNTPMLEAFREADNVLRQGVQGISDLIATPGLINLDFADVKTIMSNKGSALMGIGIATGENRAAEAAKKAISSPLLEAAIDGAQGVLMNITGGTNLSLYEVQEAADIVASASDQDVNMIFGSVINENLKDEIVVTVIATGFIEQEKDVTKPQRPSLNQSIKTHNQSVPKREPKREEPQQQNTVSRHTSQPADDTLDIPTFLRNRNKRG
# Variants of: B1
# Settings: with ftsz_bacsu ftsZ
row,effect of a mutation on the interaction,Variant
1,disrupting interaction,F126S

# Variants of: B1
# Settings: with ftsz_bacsu ftsZ
# Remark: another data set of the same source
row,effect of a mutation on the interaction,Variant
1,disrupting interaction,A100V
